Measurements: patent publication US20210347833A1 (WISYS TECHNOLOGY FOUNDATION, published 2021)

Target: the molecule itself
Experiment: size-exclusion chromatography, titration of apoSFP with biliverdin; self-association of subunits (apo protein is monomeric, no dimer fraction seen)

B1: Recombinant wild-type Sandercyanin fluorescent protein (SFP) lacking the signal peptide (other)
chain: MFIKPGRCPKPAVQEDFDAARYLGVWYDIQRLPNKFQKGECATATYSLSPGVGFSVFNRERLANGTIKSVIGSAIAEDPCEPAKLQFFHENAAPVPYWVLSTDYDNYALVYSCINLGASHAAYASIVSRQPTLPEETIKKLQGTMSSFGVGVDTLLTTNQDAAYCSAMNQ
notes: the apo protein is a monomer in solution; also called wtSFP; wild-type SFP
  binding result: binds
